Source: patent US20230250193A1 (PROVIVA THERAPEUTICS HONG KONG, published 2023)

Molecular target: T1, human FAPα (fibroblast activation protein-α) expressed on cells (human, UniProt Q12884 1-760)
T1 construct: also called cells expressing FAP
T1 sequence: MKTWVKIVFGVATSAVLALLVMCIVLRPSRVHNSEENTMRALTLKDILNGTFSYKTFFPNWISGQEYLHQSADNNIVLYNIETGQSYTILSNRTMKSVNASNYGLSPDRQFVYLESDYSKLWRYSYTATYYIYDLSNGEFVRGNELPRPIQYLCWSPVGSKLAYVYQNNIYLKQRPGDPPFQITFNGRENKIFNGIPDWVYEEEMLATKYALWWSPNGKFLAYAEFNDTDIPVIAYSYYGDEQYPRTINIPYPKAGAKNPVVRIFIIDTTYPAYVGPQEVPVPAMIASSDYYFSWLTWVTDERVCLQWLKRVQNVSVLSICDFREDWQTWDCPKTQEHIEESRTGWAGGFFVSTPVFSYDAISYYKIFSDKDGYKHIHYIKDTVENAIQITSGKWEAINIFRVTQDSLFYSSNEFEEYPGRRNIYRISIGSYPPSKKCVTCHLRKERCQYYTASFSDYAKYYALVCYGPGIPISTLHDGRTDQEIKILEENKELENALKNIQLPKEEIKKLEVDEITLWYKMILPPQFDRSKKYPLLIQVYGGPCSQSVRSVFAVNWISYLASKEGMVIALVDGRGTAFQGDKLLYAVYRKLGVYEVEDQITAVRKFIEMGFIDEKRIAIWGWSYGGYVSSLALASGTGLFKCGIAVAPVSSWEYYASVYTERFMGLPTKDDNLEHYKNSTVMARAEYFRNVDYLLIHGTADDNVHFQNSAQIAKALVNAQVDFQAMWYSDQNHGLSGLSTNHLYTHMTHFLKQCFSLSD
Assay: flow cytometry on FAPα-expressing cells, PE-labeled anti-human IgG detection
Description: FACS analysis. FACS analysis was performed for purified antibodies. Binding of Expi293 expression supernatant or purified antibodies to FAPα and/or B7H3 expressing cells was determined by flow cytometry. lx […] were incubated for 1 hour at 4° C. with purified antibodies. After washing twice with cold FACS buffer (PBS containing 1% BSA and 0.1% sodium azide), cell surface bound antibody was detected by incubating the cells with phycoerythrin (PE)-labeled anti-human IgG antibody (Jackson Immuno, Cat #109-116-098) for 1 hour at 4° C. Cells were washed twice in FACS buffer and analyzed using Guava EasyCyte HT (Merck Millipore).

B1: P28832158 (antibody, human IgG1, kappa, V domains shown)
VH: QVQLVQSGAEVKKPGASVKVSCKASGYTFTMNIIHWVRQAPGQGLEWMGWIHPGSGAIKYAQKLQGRVTMTTDTSTSTAYMELRSLRSDDTAVYYCARHGGTGRGAMDYWGQGTLVTVSS
VL: EIVLTQSPGTLSLSPGERATLSCRASQSVSTSAYSYMHWYQQKPGQAPRLLIYLASNLESGIPDRFSGSGSGTDFTLTISRLEPEDFAVYYCQQSRELPYTFGQGTKLEIKR
notes: Produced in Expi293 cells; also called M-87_G1; VH6.32/VL7.00
binding result: binds
